Target: ubiquitin conjugating enzyme E2 I (UBE2I), recombinant (UniProt P63279 1-158)
Assay: ITC

Sequence of ubiquitin conjugating enzyme E2 I (UBE2I), recombinant (P63279 whole entry): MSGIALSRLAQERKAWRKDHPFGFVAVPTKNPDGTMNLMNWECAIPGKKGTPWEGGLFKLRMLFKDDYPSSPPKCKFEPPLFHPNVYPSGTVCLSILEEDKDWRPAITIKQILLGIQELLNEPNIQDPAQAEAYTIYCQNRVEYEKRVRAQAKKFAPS

B1: lamin A (LMNA), wild type, recombinant (natural protein)
chain: METPSQRRATRSGAQASSTPLSPTRITRLQEKEDLQELNDRLAVYIDRVRSLETENAGLRLRITESEEVVSREVSGIKAAYEAELGDARKTLDSVAKERARLQLELSKVREEFKELKARNTKKEGDLIAAQARLKDLEALLNSKEAALSTALSEKRTLEGELHDLRGQVAKLEAALGEAKKQLQDEMLRRVDAENRLQTMKEELDFQKNIYSEELRETKRRHETRLVEIDNGKQREFESRLADALQELRAQHEDQVEQYKKELEKTYSAKLDNARQSAERNSNLVGAAHEELQQSRIRIDSLSAQLSQLQKQLAAKEAKLRDLEDSLARERDTSRRLLAEKEREMAEMRARMQQQLDEYQELLDIKLALDMEIHAYRKLLEGEEERLRLSPSPTSQRSRGRASSHSSQTQGGGSVTKKRKLESTESRSSFSQHARTSGRVAVEEVDEEGKFVRLRNKSNEDQSMGNWQIKRQNGDDPLLTYRFPPKFTLKAGQVVTIWAAGAGATHSPPTDLVWKAQNTWGCGNSLRTALINSTGEEVAMRKLVRSVTVVEDDEDEDGDDLLHHHHGSHCSSSGDPAEYNLRSRTVLCGTCGQPADKASASGSGAQVGGPISSGSSASSVTVTRSYRSVGGSGGGSFGDNLVTRSY
Question: Which Kd does the source give for B1 here?
Answer: Its Kd is 0.373 µM.

— article PMC9649601 (2022)
